Entries after “also recorded” stand apart in the source; their conditions may differ.
Legend:
[1] = target: T1, Notch1 (Homo sapiens, UniProt P46531); assay: ELISA of conditioned media from cotransfected HEK 293 cells for Notch1 binding activity; details: candidate humanized chains cotransfected into HEK 293 cells
Experimental: The functionality of each candidate variant humanized heavy and light chain was tested by cotransfection into mammalian cells. Each of the nine candidate humanized 52M51 heavy chains described above was cotransfected into HEK 293 cells with the murine 52M51 light chain cDNA, and conditioned media was assayed by ELISA for Notch1 binding activity. […] This variant “52M51-H4” (SEQ ID NO:22) contains, in addition to murine CDRs, variation at 3 framework positions within the Vh framework, Kabat positions 20, 48, and 71 in comparison with an example human framework (e.g. IGHV1-24). The 52M51-H4 humanized heavy chain was then cotransfected into HEK293 cells with each of the eight candidate humanized light chains, and conditioned media was again assayed for antigen binding by ELISA. […] Variant 52M51-L3 contains, in addition to murine CDRs, variation at 1 framework position at Kabat position 49 in comparison to an example human framework (e.g., IGLV7-46). Two humanized variant antibodies, 52M51H4L3 and 52M51H4L4, were developed. 52M51H4L3, as encoded by DNA deposited with the ATCC, under the conditions of the Budapest Treaty on Oct. 15, 2008, and assigned designation number PTA-9549.

[2] = target: T1, Notch1; assay: hDLL4-fc-induced Notch reporter luciferase assay in Notch1-Hela cells; type: cell-based; set-up: expressed in transfected cells; host or cells: HeLa (Notch1-Hela); details: plates coated with 200 ng/well hDLL4-fc, 48 hours after transfection
Experimental: In certain embodiments, the ability of Notch1 receptor antibodies to block ligand-mediated Notch signaling was determined. In certain embodiments, HeLa cells engineered to overexpress Notch1 (Notch1-Hela) cultured in DMEM supplemented with antibiotics and 10% FCS were co-transfected with 1) pGL4 8×CBS firefly luciferase containing a Notch responsive promoter upstream of a firefly luciferase reporter gene to measure Notch signaling levels in response to DLL4 ligand; and 2) a Renilla luciferase reporter (Promega; Madison, Wis.) as an internal control for transfection efficiency. Transfected cells were added to cultures plates coated overnight with 200 ng/well of hDLL4-fc protein, and antibodies to Notch1 were then added to the cell culture medium. Forty-eight hours following transfection, luciferase levels were measured using a dual luciferase assay kit (Promega; Madison, Wis.) with firefly luciferase activity normalized to Renilla luciferase activity. The ability of antibodies to inhibit Notch1 pathway activation was thus determined.

[3] = target: T1, Notch1; assay: Western blot of Notch1 ICD formation after DLL4 stimulation of Notch1-Hela cells; type: cell-based; set-up: expressed in transfected cells; host or cells: HeLa (Notch1-Hela); details: DLL4-fc coated wells, five hours
Experimental: Cleavage of Notch receptors by furin, ADAM, and gamma-secretase results in formation of the Notch intracellular domain (ICD) that then triggers downstream Notch signaling in the nucleus. In certain embodiments, the ability of Notch1 receptor antibodies to block ligand-mediated receptor activation was determined by Western blot analysis. Notch1-Hela cells were grown in suspension culture in 293-SMII media (Gibco). Cultured cells were transferred to 96-well plates in which select wells had been pre-coated with human DLL4-fc fusion protein ([…]) in DMEM plus 2% FBS and 1 μM MG132 (Calbiochem). Antibodies to generated against a membrane proximal region of the extracellular domain of human Notch1 were added to the cell culture medium, and cells were incubated at 37° C. for five hours. Wells were then aspirated and the cells resuspended in 2×SDS running buffer. Samples were sonicated at room temperature, and then subjected to SDS-PAGE and western blot analysis using an antibody specific for the cleaved Notch1 ICD according to the manufacturer's recommendations (Cell Signaling Technology).

[4] = tested on: C8 colon tumor cells; assay: C8 colon tumor xenograft, treatment of established tumors; type: in vivo, NOD/SCID mice; details: C8 colon tumors ~210 mm^3 at start, 10 mg/kg i.p. twice a week
Experimental: Tumor cells from a patient sample (solid tumor biopsy or pleural effusion) that have been passaged as a xenograft in mice were prepared for repassaging into experimental animals. Tumor tissue was removed, cut up into small pieces, minced completely using sterile blades, and single cell suspensions obtained by enzymatic digestion and mechanical disruption. Dissociated tumor cells were then injected subcutaneously into the mammary fat pads, for breast tumors, or into the flank, for non-breast tumors, of NOD/SCID mice to elicit tumor growth. In certain embodiments, ESA+, CD44+, CD24−/low, Lin− tumorigenic tumor cells are isolated as described in detail above and injected.
In certain embodiments, freshly isolated C8 colon tumor cells (225 cells per animal) were implanted subcutaneously into NOD/SCID mice. Following tumor cell injection, animals were monitored for tumor growth. Tumors were allowed to grow for 48 days until they reached an average size of approximately 210 mm^3 and randomized into two groups (n=10 per group). The animals were treated with either control antibody or antibody that binds to the membrane proximal region of the extracellular domain of human Notch1, 52M51, (10 mg/kg) dosed i.p. twice a week. Tumor size was assessed on days 55, 57, and 62.

T1 sequence (P46531 19-2555): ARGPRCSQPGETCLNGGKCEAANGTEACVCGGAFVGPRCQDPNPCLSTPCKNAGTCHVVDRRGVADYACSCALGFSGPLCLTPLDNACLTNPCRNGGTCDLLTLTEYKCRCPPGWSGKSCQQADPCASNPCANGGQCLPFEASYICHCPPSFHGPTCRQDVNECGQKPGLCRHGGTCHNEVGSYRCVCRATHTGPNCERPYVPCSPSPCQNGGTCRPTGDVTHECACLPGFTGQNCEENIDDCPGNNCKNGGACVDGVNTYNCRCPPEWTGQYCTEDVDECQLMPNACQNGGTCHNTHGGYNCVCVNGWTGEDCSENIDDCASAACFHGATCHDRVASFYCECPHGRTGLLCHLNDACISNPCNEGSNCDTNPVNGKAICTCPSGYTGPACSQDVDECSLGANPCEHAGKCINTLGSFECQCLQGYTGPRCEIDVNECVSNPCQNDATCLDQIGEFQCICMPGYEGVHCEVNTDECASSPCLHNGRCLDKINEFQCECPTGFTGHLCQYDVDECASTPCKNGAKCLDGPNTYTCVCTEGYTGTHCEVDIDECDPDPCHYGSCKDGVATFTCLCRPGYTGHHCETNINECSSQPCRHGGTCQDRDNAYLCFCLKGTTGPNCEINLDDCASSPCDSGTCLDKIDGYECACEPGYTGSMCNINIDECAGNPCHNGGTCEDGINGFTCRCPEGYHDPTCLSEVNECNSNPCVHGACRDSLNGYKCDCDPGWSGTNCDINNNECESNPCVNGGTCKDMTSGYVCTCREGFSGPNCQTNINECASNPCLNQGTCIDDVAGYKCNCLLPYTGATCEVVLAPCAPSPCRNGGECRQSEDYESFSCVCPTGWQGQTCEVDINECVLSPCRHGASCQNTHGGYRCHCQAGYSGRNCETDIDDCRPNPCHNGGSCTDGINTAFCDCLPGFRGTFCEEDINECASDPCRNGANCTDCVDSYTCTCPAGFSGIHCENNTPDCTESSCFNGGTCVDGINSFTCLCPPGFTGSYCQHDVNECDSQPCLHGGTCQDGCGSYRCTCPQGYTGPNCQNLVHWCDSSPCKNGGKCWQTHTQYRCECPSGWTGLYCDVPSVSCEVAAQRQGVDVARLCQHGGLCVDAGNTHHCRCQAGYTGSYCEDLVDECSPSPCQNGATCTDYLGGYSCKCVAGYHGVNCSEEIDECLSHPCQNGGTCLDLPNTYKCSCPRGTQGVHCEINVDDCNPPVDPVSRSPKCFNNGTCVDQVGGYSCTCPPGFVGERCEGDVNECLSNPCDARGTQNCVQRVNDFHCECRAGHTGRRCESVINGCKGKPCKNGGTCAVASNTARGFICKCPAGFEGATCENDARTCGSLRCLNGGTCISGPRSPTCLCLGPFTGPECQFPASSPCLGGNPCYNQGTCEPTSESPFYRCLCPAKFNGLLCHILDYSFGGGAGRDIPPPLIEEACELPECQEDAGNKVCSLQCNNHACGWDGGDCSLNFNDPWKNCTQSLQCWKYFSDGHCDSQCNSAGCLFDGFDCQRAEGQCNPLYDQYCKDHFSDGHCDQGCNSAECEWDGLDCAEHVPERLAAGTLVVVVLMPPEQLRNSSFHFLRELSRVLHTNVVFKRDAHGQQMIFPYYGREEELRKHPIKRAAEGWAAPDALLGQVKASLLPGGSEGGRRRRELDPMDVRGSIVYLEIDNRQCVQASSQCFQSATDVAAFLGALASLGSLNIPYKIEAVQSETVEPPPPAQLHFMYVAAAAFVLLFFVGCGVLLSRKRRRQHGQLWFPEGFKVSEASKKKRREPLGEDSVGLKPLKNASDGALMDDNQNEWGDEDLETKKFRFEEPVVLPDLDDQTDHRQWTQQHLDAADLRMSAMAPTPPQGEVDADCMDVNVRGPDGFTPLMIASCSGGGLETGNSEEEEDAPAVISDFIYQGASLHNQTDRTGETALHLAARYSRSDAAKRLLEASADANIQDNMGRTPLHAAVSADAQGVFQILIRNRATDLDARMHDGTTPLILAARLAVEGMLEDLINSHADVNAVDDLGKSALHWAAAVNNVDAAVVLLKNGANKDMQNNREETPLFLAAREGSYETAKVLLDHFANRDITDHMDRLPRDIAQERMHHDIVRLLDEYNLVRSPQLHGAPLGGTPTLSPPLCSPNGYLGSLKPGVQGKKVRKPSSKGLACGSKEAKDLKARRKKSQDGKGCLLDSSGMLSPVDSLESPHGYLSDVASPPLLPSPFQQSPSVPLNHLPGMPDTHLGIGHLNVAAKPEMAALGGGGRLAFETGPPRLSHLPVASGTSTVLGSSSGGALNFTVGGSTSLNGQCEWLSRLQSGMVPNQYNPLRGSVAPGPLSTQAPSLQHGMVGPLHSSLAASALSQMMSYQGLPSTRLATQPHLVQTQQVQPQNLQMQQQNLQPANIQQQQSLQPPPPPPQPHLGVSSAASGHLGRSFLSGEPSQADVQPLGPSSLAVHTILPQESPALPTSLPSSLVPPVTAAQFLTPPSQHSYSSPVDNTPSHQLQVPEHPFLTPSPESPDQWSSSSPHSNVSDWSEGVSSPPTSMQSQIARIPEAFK

B1: 52M51-H4: humanized 52M51 heavy chain variant (SEQ ID NO:22), tested with the murine 52M51 light chain (antibody)
heavy: QVQLVQSGAEVKKPGASVKISCKVSGYTLRGYWIEWVRQAPGKGLEWIGQILPGTGRTNYNEKFKGRVTMTADTSTDTAYMELSSLRSEDTAVYYCARFDGNYGYYAMDYWGQGTTVTVSSASTKGPSVFPLAPCSRSTSESTAALGCLVKDYFPEPVTVSWNSGALTSGVHTFPAVLQSSGLYSLSSVVTVPSSNFGTQTYTCNVDHKPSNTKVDKTVERKCCVECPPCPAPPVAGPSVFLFPPKPKDTLMISRTPEVTCVVVDVSHEDPEVQFNWYVDGVEVHNAKTKPREEQFNSTFRVVSVLTVVHQDWLNGKEYKCKVSNKGLPAPIEKTISKTKGQPREPQVYTLPPSREEMTKNQVSLTCLVKGFYPSDIAVEWESNGQPENNYKTTPPMLDSDGSFFLYSKLTVDKSRWQQGNVFSCSVMHEALHNHYTQKSLSLSPGK
light: QAVVTQESALTTSPGETVTLTCRSSTGAVTTSNYANWVQEKPDHLFTGLIGGTNNRAPGVPARFSGSLIGDKAALTITGAQTEDEAIYFCALWYSNHWVFGGGTKLTVLGQPKSSPSVTLFPPSSEELETNKATLVCTITDFYPGVVTVDWKVDGTPVTQGMETTQPSKQSNNKYMASSYLTLTARAWERHSSYSCQVTHEGHTVEKSLSRADCS
Notch1 / antigen binding by ELISA [1]: most robust binding

B2: 52M51H4L3: humanized variant of 52M51, heavy chain H4 and light chain L3; DNA deposited as ATCC PTA-9549 (antibody)
heavy: B1 heavy
light: SGVDSQAVVTQEPSLTVSPGGTVTLTCRSSTGAVTTSNYANWFQQKPGQAPRTLIGGTNNRAPGVPARFSGSLLGGKAALTLSGAQPEDEAEYYCALWYSNHWVFGGGTKLTVLGQPKAAPSVTLFPPSSEELQANKATLVCLVSDFYPGAVTVAWKADGSPVKVGVETTKPSKQSNNKYAASSYLSLTPEQWKSHRSYSCRVTHEGSTVEKTVAPAECS
Notch signaling (luciferase activity) [2]: significantly inhibited Notch signaling

B3: 52M51: murine monoclonal antibody to membrane proximal region of human Notch1; hybridoma ATCC PTA-9405; heavy SEQ ID NO:10, light SEQ ID NO:4 (antibody)
heavy: MEWTWVFLFLLSVTAGVHSQVQLQQSGAELMKPGASVKISCKAAGYTMRGYWIEWIKQRPGHGLEWIGQILPGTGRTNYNEKFKGKATFTADTSSNTANMQLSSLTSEDSAVYYCARFDGNYGYYAMDYWGQGSSVTVSSAKTTPPSVYPLAPGSAAQTNSMVTLGCLVKGYFPEPVTVTWNSGSLSSGVHTFPAVLQSDLYTLSSSVTVPSSPRPSETVTCNVAHPASSTKVDKKIVPRDCGCKPCICTVPEVSSVFIFPPKPKDVLTITLTPKVTCVVVDISKDDPEVQFSWFVDDVEVHTAQTQPREEQFNSTFRSVSELPIMHQDWLNGKEFKCRVNSAAFPAPIEKTISKTKGRPKAPQVYTIPPPKEQMAKDKVSLTCMITDFFPEDITVEWQWNGQPAENYKNTQPIMNTNGSYFVYSKLNVQKSNWEAGNTFTCSVLHEGLHNHHTEKSLSHSPGK
light: MAWISLILSLLALSSGAISQAVVTQESALTTSPGETVTLTCRSSTGAVTTSNYANWVQEKPDHLFTGLIGGTNNRAPGVPARFSGSLIGDKAALTITGAQTEDEAIYFCALWYSNHWVFGGGTKLTVLGQPKSSPSVTLFPPSSEELETNKATLVCTITDFYPGVVTVDWKVDGTPVTQGMETTQPSKQSNNKYMASSYLTLTARAWERHSSYSCQVTHEGHTVEKSLSRADCS
modifications: Synthetic heavy chain of antibody 52M51; Synthetic light chain of antibody 52M51
Notch1 ICD formation after ligand stimulation [3]: significantly inhibited the generation of ICD; also recorded: reduce ICD formation to background levels
tumor growth compared to control antibody [4]: statistically significant (p=0.0006) inhibition of tumor growth; also recorded: significantly (p=0.0006) inhibited tumor growth
